Laboratory results as given in the nanobody polyreactivity screen of Harvey et al. (2022).

Experiment: yeast display, Sf9 membrane polyspecificity reagent, FACS + sequencing; frameworks hold sequencing errors
Outline: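 A synthetic nanobody library was expressed on Saccharomyces cerevisiae BJ5465 by galactose induction for 36–48 hours. The library was stained for 1 hour at 4 °C with 10% biotinylated, detergent-solubilized Sf9 membrane reagent and enriched with streptavidin microbeads before FACS. Low and high (top ~1%) gates were set on anti-HA fluorescence for expression and streptavidin fluorescence for reagent binding, and each polyreactivity label reflects the gate of origin.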

| Sequence | polyreactivity (PSR sort gate) |
| --- | --- |
| QVQLVESGVGLVQAGGSLSLSSAASGSIFGYYAMGWYRQAPGKERELVAAITSDGDTYYADSVKGRFTISRDNAKNTVYLQINSLKPEDTAVYYCNATYGGPYYIQNDYWGQGTQVTVSS | low polyreactivity |
| QVQLVESGGGLVQAGGSLRLSCAASGSIFPYNAMGWYRQAPGKERELVATISSGGSTNYADSVKGRFTISRDNAKNTVYLQMNSLKPEDTAVYYCATDDFWNVKFYAYYPEFDYWGQGTQVTVSS | low polyreactivity |
| QVQLVESGGGLVQAGGSLRLSCAASGSIFKFYTMGWYRQAPGKERELVATISRSGGGTFYADSVKGRFTISGDNSKNTVYLQMNSLKPEDTAVYYCSADPAFTHYPFGYGYWGQGTQVTVSS | low polyreactivity |
| QVQLVESGGGLDQAGGSHRLSCAASGRTFPGNAMGWYRQAPGKERELVAAISWSGSRTYYADSLKGRFTISRDNAKNTVYLHMTRMKPEDTAVYYCNVVVKGAWEYYPYDYWGQGTEVTVSS | high polyreactivity |
| QVQLVESGVGIVQARGSLRLSCAASGYTFYRYTMGWYRQSRGNERELVAAINSGGSTNYADSVKGRFTISRDNAKNTVYLQMNSLKPEDTAVYYCAAGDGPWLPRVHYGGYGYWGQGTQVTVSS | high polyreactivity |
| QVQLVESGGGIVQAGGSLRLSCAASGSTFFIYAMGWYRQAPGKERELVAAISGSGGTTYYADSVKGRFTISRDNAKNTVYLQMNSLKPEDTAVYYCAARTFSAFWRGGYDYWGQGTQVTVSS | low polyreactivity |
| QVHLVESGGGLVQAGGSLRLSFAASGSTFEDNAMGWYRQAPGKERELVAGISTNGGSTSYADSVKGRFTISRDNAKNTVYLQMNSLKPEVTAVYYCAKGLYVQFDYWGQGTQVTVSS | low polyreactivity |
| QVQLVESGGGLVQAGGSLRLSCAASGSTFVGYAMGWYRQAPGQERELVAGITINGGSTYYADSVKGRFTISRDNAKNTVYLQMNSLKPEDTAVYYCAATGNENYPDPLQSMDYWGQGTQVTVSS | low polyreactivity |
| QVQLVESGGGLVHGGGSLSLSFDASGSIFRVYPMGWYSPAPGKERELVAAIDSGPSTTYADCVTGRFTISRDNAKNTVYLLMNRLKPVDTEVYCFAADGWLWSFTGDGWWFDYWGQGTQVSVSS | low polyreactivity |
| QVQLVESGGGLVQAGGSLRLSCAASGTTFTFNAMGWSRQAPGKERELVAAMSRSGGRTYYADSVKGRFTISRDNAKNTVYLQMNSLNPEDTAVYYCANDFVEQGRYNVGYWGQGTQVTGSS | high polyreactivity |
| QVQLVESGGGLVQAGGSLRLSCAASGRTYGYAMGWYRQAPGKERELVARITWRGGSTSYADSVKGRFTISRDNAKNTVYLQMNSLKPEDTAVYYCAAGFYFPVYTYVRKRYYYWGQGTQVTVSS | high polyreactivity |
| QVQLVESGGGLVQAGGSLRLSCAASGSTFRVYAMGWYRQAPGKERELVAAISGSGGSTYYADSVKGRFTISRDNAKNTVSLQMNSMKPEDTAVYYCAARSWYTEYYWGQGTQVTVSS | high polyreactivity |
| EVQLVESGGGLVQAGGSLRLSCAASGRTFIWNAMGWYRQAPGKERELVAAITRNGDSTYYADSVKGRFTISRDNAKNTVYLQMNSLKPEDTAVYYCAAYSRVFVYRTVGNYGWMNYWGQGTQVTVSS | high polyreactivity |
| QVQLVESGGGLVQAGGSLRLSCAASGYIFGNYAMGWYRQAPGKERELVAAISKSGVTTYYADSVKGRFTISRDNAKNTVYLQMNSLKPEDTAVYYCIARSWRPINARYNEYDYWGQGTQVTVSS | low polyreactivity |
| QVHLVESGGGLVQAGGSLSLSCAASGFTYTSYAMGWYRQAPGTEREFVAAIRRSGSGTYYADSVKGRFTISRVNAKNTVYLQMNSLNPEDTAVYYCAVVPPRLYYHYDYWGQGTQVTVSS | high polyreactivity |
| QVQLVESGGGLVQEGGSLLLSCDASGFTFAVYAMGWYRQAPGKERELVAAITTSGTRTYNADSVKGRFTISRDNAKNTVYLQMNSLKPEDTAVYYCAAVVFRQWPEFDYWGQGTQVTVSS | low polyreactivity |
| QVQLVESGVGLVQAGGSLRLICAASGSIFWSNAMGWYTQAPGKERELVAAISSGGSTYADSVKGRFTISRDNAKNTVYLQMNSLKPEDTAVYYCNADVLYGDSYRGGYWGQGTQVTVSS | low polyreactivity |
| QVQLVESGGGLVQAGGSLRLSCAASGFIIYFNAMGWYRQAPGKERELVAAISASGGRTYYADSVKGRFTISRDNAKNTVYLQMNSLKPEDTAVYYCAADIRGYDYWGQGTQVTVSS | high polyreactivity |
| QVQLVESGGGLVQAGGSLRFSCAASGITFRRYAMGWYRQAPGKERELVASISRGGSTYYADSVKGRFTISRDNAKNTVYLQMNSLKPEDTAVYYCAADVAWRYDYWGQGTQVNVSS | high polyreactivity |
| QVQLVESGGGLVQAGGSLRLSCAASGLTFWVYTMGWYRQAPGKERELVAAITRGGSTTYADSVKGRFTISRDNAKNSVYLQMNSLQPEDTAVYYCNAVYKYSVVYKLDYWGQGTQVTVSS | high polyreactivity |
| QVQLVESRGGLVQAGGSLRLSCAASGYTFQRYAMGCYRQAPGKEREMVAAISWSSGTTYYADSVKGRFTISRDNAKNTVYLQMNSLKPEDTAVYYCAAAGRQSGGRFYYWGQGTQVTVSS | high polyreactivity |
| QVQLVESGGGLVQPGGSLRLSCAASGRISYVYTMGWYRQAPGKERELVAAISKSGGSTSYADSVKGRFTISRDNAKNTVYLQMNSLKPEDTAVYYCAAGRYYYTYAYDHWGQGTQVTLSS | high polyreactivity |

| Sequence | polyreactivity (PSR sort gate) |
| --- | --- |
| QVQVVESGGALVQAGGSLRLSCAASGSTFYNYAMGWYRPAPGKERELVAAISSGGGITYYADSVKGRFTISRDNAKNNVYVQMNSLKPEDTAFYYCNARRKYLGYNYWGQGTQVTVSS | high polyreactivity |
| QVQLVESGGGLVQAGGSLRLSCAASGSIFRYYAMGWYRQAPGKEREFDASITYRGGRTYYADSVKGRFTISRDNAKNTVYLQMNSLKPEDTAVYYCAARTRAGAWTSKYHDYWGQGTQVTVSS | high polyreactivity |
| QVQLVESGGGLVQAGGSLRLSCAASGRIFRYYAMGWYRQAPGKERELVAAISSGGRTYYADSVKGRFTISRDNAKNTVYLQMNSLKPEDTAVYYCNAYAYHAGGDYWGQGTQVTVSS | high polyreactivity |
| QVQLVQSGGGLVQAGGSLRLSCAASGNIFKGYAMRWYRQAPVKERELVAAISKSGGSTYYADSVKGRFTMSRDNAKNTVYLQLNSLKPADTAVYYSNTYTYAGYNYWGQGTQVTVSS | high polyreactivity |
| QDQLVESGGGLVQAGGSLRLSCAASGSTFKVYAMGWYRQAPGKERELVAAISASDCSTYYADSVKGRFTISRDNAKNTVYLQMNILKAEDTAVYYCNAAYPEWYAYDYWGQGTQVTVSS | low polyreactivity |
| QVQLVESGGGIVQAGGSLRLSCAASGLIFYYYALGWYRQAPGKERQLVAAITSGSTTYADSVKGRFTISRDNAKNTVYLQMNSLKPEDTAVYYCNKDQDYKLTTTFDYDYWGQGTQVTVSS | low polyreactivity |
| QVQLVESGGGLVQAGGSLRLSCAASGSIFPSNAMGWYRQAPGKERELVAAISWSGDITYYADSVKGRFTISRDNAKNTVYLQMNSLKPEDTAVYYCAADTPIAGYWYNYWGQGTQVTVSS | low polyreactivity |
| QVLLVESGGGLVQAGGSLRLSCAASGRTLRGYAMGWYRQAPGKERELVAAITWSGGSTYYADSVKGRFTISRDHAKNTVYLQMNSLKPEDTAVYYCNARSYPDLYDYWGQGTQVTVSS | low polyreactivity |
| QVQLVESGGGLVQAGGSLRLSFAASGRTFSGYAMGWYRQAPGKERELVASISGSGSSTYYADSVKGRFTISRDNAKNTVYLQMNSLKPEHTAVYYCNATRAGENPDGGDEYWGQGTQVTVSS | high polyreactivity |
| QVQLVESGGGLVQAGGSLRLSCAASGFIFYYNARGWYRQAPGKERELVAGISWDGSTYYADSVKGRFTISRDNAKNTVYLQMNSLKPEDTAVYYCAAALLDDYFDLFIFGYWGQGTQVTVSS | low polyreactivity |
| QVQLVESGGGLVQAGGRLRLSCAASGFIFSYYTMGCYRQAPGKERELVAAIRSSGGSTYADSVKGRFTISRDNAKNTVYLQMNSLNPEDTAVYYGAGGYYWNEPLYWYGDFDYWGQGTQVTVSS | high polyreactivity |
| QVQLVESGGGLVQAGGSLRLSCAASGSILDGYDMGRYRQAPGKERDLDAAISTNSDRTYYADSVKGRFTISRDNAKNTVYLQMNSLKPEDTAVYYCNARKRRRAGYPYDYWGQGTQVTVSS | high polyreactivity |
| QVQLVDSGGGLVQAGGSLRLSCAASGRTFSVNAMGWYRQAPGKERELVAAISSAGSTNYADSVKGRFTISRDNAKNTVYLQMNSLKPEDTAVYYCAAGFSPGNYDAPTLAFDYWGQGTQVTLSS | low polyreactivity |
| QVQLVESGGGLVQAGGSLRLSCAASGITFRLYAMGWYRQAPGKERELVAAISKRGGSTYYADSVKGRFTISRDNAKNTVYLQMNSLKPEDTAVYYCAADSGWEHRYDYWGQGTQVTVSS | high polyreactivity |
| QVQLVESGGGLVQAGGSLRLICAASGNTFYGYAMGWYRQAPGKERELVASITLSGDSTYYADSVKGRFTISRDNAKNTVYLQMNSLKPEDTAVYYCNRARHQYSRWHGGYYYWGQGTQVTVSS | low polyreactivity |
| QVQLVESGGGLVQAGGSLRLSCAASGSIFITYAMGWYRQAPGKERELVAAIRDSGDRTYYADSVKGRFTISRDNAKNTVYLQMNSLKPEDTAVYYCAKRAWGSPYGYWGQGTQVTVSS | low polyreactivity |
| QVQLVESGGGLVQAGGSLRLSCAASGRIFAVYAMGWYRQAPGKERELVAAIRWSGVRTYYADSVKGRFTISRDNAKNTVYLQMNSLKPEDTAVYYCAAEYSGQYYSPVSFLYDYWGQGTQVTVSS | high polyreactivity |
| QVQLVESGGGLVQAGGSLRISCAASGSTFWYHAKGWSRQAPGKERELVATITNSGGSTYYADSVKGRFTISRDNAKNTVYLQKNSLKPEDTAVYYGATDVYSGALLKYDFWGQGTQVTVSS | low polyreactivity |
| QVQLVESGGGLVQAGGSLRLSCAASGRTFTAYTMGWYRQAPGKERELVDSISSGVTYADSVKGRFTISRDNAKNTVYLQMNSLKPEDTAVYYCAARLWYVQGYVPYVHHRFDYWGQGTQVTVSS | low polyreactivity |
| QVQLVESGGGLVQAGGSLRLSCAASGITFKYYVMGWYRQAPGKERELVARITRRSGSTYYADSVKGRFTISRDNAKNTVYLQMNSLKPEDTAVYYCAASPHSRSDYGYWGQGTQVTVSS | high polyreactivity |
| QVQLVESGGGLVQAGGSLRLSCAASGFTCVRYAMGWYRPAPGKEREFVASISARGGNTFYADSVKGRFTISRDHAKNTVYLQMNSLKPEDTAVYYCAKRGPYGTGYGYWGQGTQLTVSS | high polyreactivity |
